The values that follow are results of earlier work, collected in paper PMC6002756.

The target in one series is E-cadherin (X-dimer) ECD (UniProt P12830).
Another series has as its target E-cadherin ECD (UniProt P12830).

Chain of E-cadherin (X-dimer) ECD (P12830 155-709): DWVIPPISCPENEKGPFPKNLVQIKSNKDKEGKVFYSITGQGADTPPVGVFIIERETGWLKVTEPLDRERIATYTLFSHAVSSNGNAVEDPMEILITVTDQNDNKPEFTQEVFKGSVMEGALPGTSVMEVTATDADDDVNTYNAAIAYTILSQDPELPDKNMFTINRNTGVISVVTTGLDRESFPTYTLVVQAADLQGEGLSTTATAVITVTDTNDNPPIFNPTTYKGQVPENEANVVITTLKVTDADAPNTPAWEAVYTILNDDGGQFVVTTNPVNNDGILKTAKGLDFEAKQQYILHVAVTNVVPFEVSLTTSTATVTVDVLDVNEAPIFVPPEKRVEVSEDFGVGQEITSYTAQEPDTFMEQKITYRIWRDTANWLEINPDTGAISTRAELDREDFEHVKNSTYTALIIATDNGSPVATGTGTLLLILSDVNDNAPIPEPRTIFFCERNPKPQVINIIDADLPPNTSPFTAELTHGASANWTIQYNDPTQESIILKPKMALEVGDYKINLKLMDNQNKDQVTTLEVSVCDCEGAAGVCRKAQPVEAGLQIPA
Chain of E-cadherin ECD (P12830 155-709): as above

Broadly, the Kd is the free concentration of one partner at which half of the binding sites on the other are occupied at equilibrium, for simple one-to-one binding. As for “E-cadherin (X-dimer) ECD (from UniProt P12830)”, in the series with E-cadherin (X-dimer) ECD, the Kd is 900 µM. In the case of E-cadherin ECD (from UniProt P12830), in the series with E-cadherin ECD, the Kd is 100 µM.
